In PMC11609826 (Cancer Discovery, 2024):

How the values were obtained:
Experiment in all cases: ELISA
CD28, recombinant = CD28, recombinant (Homo sapiens (assumed), UniProt P10747)
[1] = target: B- and T-lymphocyte attenuator (BTLA), recombinant (Homo sapiens (assumed), UniProt Q7Z6A9)
[2] = target: inducible T-cell costimulator (ICOS), recombinant (Homo sapiens (assumed), UniProt Q9Y6W8)
PD-1, recombinant = PD-1, recombinant (Homo sapiens (assumed), UniProt Q15116)

Measured: binding result

Sequence of inducible T-cell costimulator (ICOS), recombinant (Q9Y6W8 21-199): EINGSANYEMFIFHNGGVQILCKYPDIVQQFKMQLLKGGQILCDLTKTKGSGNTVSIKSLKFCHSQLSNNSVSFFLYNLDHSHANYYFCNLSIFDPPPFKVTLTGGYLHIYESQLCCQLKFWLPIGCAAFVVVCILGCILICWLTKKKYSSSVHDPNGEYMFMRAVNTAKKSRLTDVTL
Sequence of PD-1, recombinant (Q15116 25-288): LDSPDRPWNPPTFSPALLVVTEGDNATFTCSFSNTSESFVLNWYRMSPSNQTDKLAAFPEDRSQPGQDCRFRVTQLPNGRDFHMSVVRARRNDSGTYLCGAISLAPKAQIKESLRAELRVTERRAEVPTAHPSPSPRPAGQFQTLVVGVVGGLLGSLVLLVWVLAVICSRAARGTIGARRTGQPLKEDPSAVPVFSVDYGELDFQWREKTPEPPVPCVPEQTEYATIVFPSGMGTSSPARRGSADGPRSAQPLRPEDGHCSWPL

B1: Botensilimab (antibody, V domains shown)
VH: EVQLVESGGGLVKPGGSLRLSCAASGFTFSSYSMNWVRQAPGKGLEWVSSISSSSSYIYYAESVKGRFTISRDNAKNSLYLQMNSLRAEDTAVYYCARVGLFGPFDIWGQGTLVTVSS
VL: EIVLTQSPGTLSLSPGERATLSCRASQSVSRYLGWYQQKPGQAPRLLIYGASTRATGIPDRFSGSGSGTDFTLTITRLEPEDFAVYYCQQYGSSPWTFGQGTKVEIK
no binding (tested: 1,000 ng/mL): all assays above
